Test results published in patent US20180273635A1 (Zymeworks, published 2018).

Tests used:
Recombinant human HER2 [1] = target: T1, Recombinant human HER2 (human, UniProt P04626 23-652); assay: SPR, variant captured on anti-human Fc, HER2 flowed, 25 C, post-SEC
T1 construct: extracellular domain; analyte of the SPR assays; also called HER2 ECD; ECD2 of HER2
Description: (§1) The affinity towards HER2 ECD of the samples was measured by SPR on a Biacore T200 as follows. Between 2000 and 4000 RU of anti-human Fc injected at concentration between 5 and 10 μg/ml was immobilized on a CM5 chip using standard amine coupling. Antigen-binding constructs were captured on the anti-human Fc (injected at concentration at 0.51 microg/mL in PBST, 1 min at 10 microl/min) at response levels ranging from 120-270 RU. […] HER2 dilutions were analyzed in duplicates. Sensograms were fit globally to a 1: 1 Langmuir binding model, using the software provided with the Biacore T200. All experiments were conducted at 25° C.
(§2) The affinity of antigen-binding constructs in OA format was determined by SPR following protein A purification. […] Antigen-binding constructs in FSA format were purified by protein A affinity and SEC prior to assessment of affinity by SPR.

Recombinant human HER2 [2] = target: T1, Recombinant human HER2; assay: SPR, variant captured on anti-human Fc, HER2 flowed, 25 C, pre-SEC;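 further: HER2 extracellular domain binding on Biacore T200, CM5 chip with amine-coupled anti-human Fc, duplicate antigen dilutions, global 1:1 Langmuir fit, measured after protein A purification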
Recombinant human HER2 [3] = target: T1, Recombinant human HER2; assay: SPR, post-SEC; ratio to WT v10013
Description: as §1, §2

Recombinant human HER2 [4] = target: T1, Recombinant human HER2; assay: SPR, pre-SEC; ratio to WT v10013;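 further: SPR on Biacore T200 at 25 °C, constructs captured via anti-human Fc on CM5 chip, HER2 ECD as analyte, 1:1 Langmuir global fit, after protein A purification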
Description: as §1, §2

B1: variant 9996 (antibody)
heavy: EVQLVESGGGLVQPGGSLRLSCAASGFTFADYTMDWVRQAPGKGLEWVGDVNPNSGGSIYNQRFKGRFTFSVDRSKNTLYLQMNSLRAEDTAVYYCARNLGPSFYFDYWGQGTLVTVSSASTKGPSVFPLAPSSKSTSGGTAALGCLVKDYFPEPVTVSWNSGALTSGVHTFPAVLQSSGLYSLSSVVTVPSSSLGTQTYICNVNHKPSNTKVDKKVEPKSCDKTHTCPPCPAPELLGGPSVFLFPPKPKDTLMISRTPEVTCVVVDVSHEDPEVKFNWYVDGVEVHNAKTKPREEQYNSTYRVVSVLTVLHQDWLNGKEYKCKVSNKALPAPIEKTISKAKGQPREPQVYVYPPSRDELTKNQVSLTCLVKGFYPSDIAVEWESNGQPENNYKTTPPVLDSDGSFALVSKLTVDKSRWQQGNVFSCSVMHEALHNHYTQKSLSLSPG
light: not shown
Fc: not shown
notes: OA format; also called v9996
- Kd (Recombinant human HER2 [1]): 1.9 nM
- Kd (Recombinant human HER2 [2]): 2 nM

B2: variant 12491 (antibody, human IgG1, kappa)
heavy: EVQLVESGGGLVQPGGSLRLSCAASGFTFTDYTMDWVRQAPGKGLEWVADVNPNSGFSIYNQRFKGRFTLSVDRSKNTLYLQMNSLRAEDTAVYYCARNLGPSFYFDYWGQGTLVTVSSASTKGPSVFPLAPSSKSTSGGTAALGCLVKDYFPEPVTVSWNSGALTSGVHTFPAVLQSSGLYSLSSVVTVPSSSLGTQTYICNVNHKPSNTKVDKKVEPKSCDKTHTCPPCPAPELLGGPSVFLFPPKPKDTLMISRTPEVTCVVVDVSHEDPEVKFNWYVDGVEVHNAKTKPREEQYNSTYRVVSVLTVLHQDWLNGKEYKCKVSNKALPAPIEKTISKAKGQPREPQVYVYPPSRDELTKNQVSLTCLVKGFYPSDIAVEWESNGQPENNYKTTPPVLDSDGSFALVSKLTVDKSRWQQGNVFSCSVMHEALHNHYTQKSLSLSPG
light: not shown
chain: not shown
notes: OA pertuzumab variant, HC G56F (Kabat); also called v12491
- Ka, mut/Ka, WT (Recombinant human HER2 [3]): 2.1
- Kd (Recombinant human HER2 [1]): 10 nM
- Ka, mut/Ka, WT (Recombinant human HER2 [4]): 2.1
- Kd (Recombinant human HER2 [2]): 9.1 nM

B3: variant 12480 (antibody, human IgG1, kappa)
heavy: EVQLVESGGGLVQPGGSLRLSCAASGFTFQDYTMDWVRQAPGKGLEWVADVNPNSGGSIYNQRFKGRFTLSVDRSKNTLYLQMNSLRAEDTAVYYCARNLGPSFYFDYWGQGTLVTVSSASTKGPSVFPLAPSSKSTSGGTAALGCLVKDYFPEPVTVSWNSGALTSGVHTFPAVLQSSGLYSLSSVVTVPSSSLGTQTYICNVNHKPSNTKVDKKVEPKSCDKTHTCPPCPAPELLGGPSVFLFPPKPKDTLMISRTPEVTCVVVDVSHEDPEVKFNWYVDGVEVHNAKTKPREEQYNSTYRVVSVLTVLHQDWLNGKEYKCKVSNKALPAPIEKTISKAKGQPREPQVYVYPPSRDELTKNQVSLTCLVKGFYPSDIAVEWESNGQPENNYKTTPPVLDSDGSFALVSKLTVDKSRWQQGNVFSCSVMHEALHNHYTQKSLSLSPG
light: not shown
chain: not shown
notes: OA pertuzumab variant, HC T30Q (Kabat); also called v12480
- Ka, mut/Ka, WT (Recombinant human HER2 [3]): 4.7
- Kd (Recombinant human HER2 [1]): 4.4 nM
- Ka, mut/Ka, WT (Recombinant human HER2 [4]): 4.6
- Kd (Recombinant human HER2 [2]): 4.2 nM

B4: variant 12482 (antibody, human IgG1, kappa)
heavy: EVQLVESGGGLVQPGGSLRLSCAASGFTFFDYTMDWVRQAPGKGLEWVADVNPNSGGSIYNQRFKGRFTLSVDRSKNTLYLQMNSLRAEDTAVYYCARNLGPSFYFDYWGQGTLVTVSSASTKGPSVFPLAPSSKSTSGGTAALGCLVKDYFPEPVTVSWNSGALTSGVHTFPAVLQSSGLYSLSSVVTVPSSSLGTQTYICNVNHKPSNTKVDKKVEPKSCDKTHTCPPCPAPELLGGPSVFLFPPKPKDTLMISRTPEVTCVVVDVSHEDPEVKFNWYVDGVEVHNAKTKPREEQYNSTYRVVSVLTVLHQDWLNGKEYKCKVSNKALPAPIEKTISKAKGQPREPQVYVYPPSRDELTKNQVSLTCLVKGFYPSDIAVEWESNGQPENNYKTTPPVLDSDGSFALVSKLTVDKSRWQQGNVFSCSVMHEALHNHYTQKSLSLSPG
light: not shown
chain: not shown
notes: OA pertuzumab variant, HC T30F (Kabat); also called v12482
- Ka, mut/Ka, WT (Recombinant human HER2 [3]): 2.9
- Kd (Recombinant human HER2 [1]): 7.3 nM
- Ka, mut/Ka, WT (Recombinant human HER2 [4]): 2.5
- Kd (Recombinant human HER2 [2]): 7.7 nM

B5: variant 12489 (antibody, human IgG1, kappa)
heavy: EVQLVESGGGLVQPGGSLRLSCAASGFTFTDYTMDWVRQAPGKGLEWVADVNPNSGMSIYNQRFKGRFTLSVDRSKNTLYLQMNSLRAEDTAVYYCARNLGPSFYFDYWGQGTLVTVSSASTKGPSVFPLAPSSKSTSGGTAALGCLVKDYFPEPVTVSWNSGALTSGVHTFPAVLQSSGLYSLSSVVTVPSSSLGTQTYICNVNHKPSNTKVDKKVEPKSCDKTHTCPPCPAPELLGGPSVFLFPPKPKDTLMISRTPEVTCVVVDVSHEDPEVKFNWYVDGVEVHNAKTKPREEQYNSTYRVVSVLTVLHQDWLNGKEYKCKVSNKALPAPIEKTISKAKGQPREPQVYVYPPSRDELTKNQVSLTCLVKGFYPSDIAVEWESNGQPENNYKTTPPVLDSDGSFALVSKLTVDKSRWQQGNVFSCSVMHEALHNHYTQKSLSLSPG
light: not shown
chain: not shown
notes: OA pertuzumab variant, HC G56M (Kabat); also called v12489
- Ka, mut/Ka, WT (Recombinant human HER2 [3]): 1.6
- Kd (Recombinant human HER2 [1]): 13 nM
- Ka, mut/Ka, WT (Recombinant human HER2 [4]): 1.4
- Kd (Recombinant human HER2 [2]): 14 nM

B6: variant 12478 (antibody, human IgG1, kappa)
heavy: EVQLVESGGGLVQPGGSLRLSCAASGFTFYDYTMDWVRQAPGKGLEWVADVNPNSGGSIYNQRFKGRFTLSVDRSKNTLYLQMNSLRAEDTAVYYCARNLGPSFYFDYWGQGTLVTVSSASTKGPSVFPLAPSSKSTSGGTAALGCLVKDYFPEPVTVSWNSGALTSGVHTFPAVLQSSGLYSLSSVVTVPSSSLGTQTYICNVNHKPSNTKVDKKVEPKSCDKTHTCPPCPAPELLGGPSVFLFPPKPKDTLMISRTPEVTCVVVDVSHEDPEVKFNWYVDGVEVHNAKTKPREEQYNSTYRVVSVLTVLHQDWLNGKEYKCKVSNKALPAPIEKTISKAKGQPREPQVYVYPPSRDELTKNQVSLTCLVKGFYPSDIAVEWESNGQPENNYKTTPPVLDSDGSFALVSKLTVDKSRWQQGNVFSCSVMHEALHNHYTQKSLSLSPG
light: not shown
chain: not shown
notes: OA pertuzumab variant, HC T30Y (Kabat); also called v12478
- Ka, mut/Ka, WT (Recombinant human HER2 [3]): 3.6
- Kd (Recombinant human HER2 [1]): 5.8 nM
- Ka, mut/Ka, WT (Recombinant human HER2 [4]): 3.5
- Kd (Recombinant human HER2 [2]): 5.6 nM

B7: variant 12479 (antibody, human IgG1, kappa)
heavy: EVQLVESGGGLVQPGGSLRLSCAASGFTFNDYTMDWVRQAPGKGLEWVADVNPNSGGSIYNQRFKGRFTLSVDRSKNTLYLQMNSLRAEDTAVYYCARNLGPSFYFDYWGQGTLVTVSSASTKGPSVFPLAPSSKSTSGGTAALGCLVKDYFPEPVTVSWNSGALTSGVHTFPAVLQSSGLYSLSSVVTVPSSSLGTQTYICNVNHKPSNTKVDKKVEPKSCDKTHTCPPCPAPELLGGPSVFLFPPKPKDTLMISRTPEVTCVVVDVSHEDPEVKFNWYVDGVEVHNAKTKPREEQYNSTYRVVSVLTVLHQDWLNGKEYKCKVSNKALPAPIEKTISKAKGQPREPQVYVYPPSRDELTKNQVSLTCLVKGFYPSDIAVEWESNGQPENNYKTTPPVLDSDGSFALVSKLTVDKSRWQQGNVFSCSVMHEALHNHYTQKSLSLSPG
light: not shown
chain: not shown
notes: OA pertuzumab variant, HC T30N (Kabat); also called v12479
- Ka, mut/Ka, WT (Recombinant human HER2 [3]): 4.7
- Kd (Recombinant human HER2 [1]): 4.4 nM
- Ka, mut/Ka, WT (Recombinant human HER2 [4]): 3.9
- Kd (Recombinant human HER2 [2]): 5 nM

B8: variant 12490 (antibody, human IgG1, kappa)
heavy: EVQLVESGGGLVQPGGSLRLSCAASGFTFTDYTMDWVRQAPGKGLEWVADVNPNSGYSIYNQRFKGRFTLSVDRSKNTLYLQMNSLRAEDTAVYYCARNLGPSFYFDYWGQGTLVTVSSASTKGPSVFPLAPSSKSTSGGTAALGCLVKDYFPEPVTVSWNSGALTSGVHTFPAVLQSSGLYSLSSVVTVPSSSLGTQTYICNVNHKPSNTKVDKKVEPKSCDKTHTCPPCPAPELLGGPSVFLFPPKPKDTLMISRTPEVTCVVVDVSHEDPEVKFNWYVDGVEVHNAKTKPREEQYNSTYRVVSVLTVLHQDWLNGKEYKCKVSNKALPAPIEKTISKAKGQPREPQVYVYPPSRDELTKNQVSLTCLVKGFYPSDIAVEWESNGQPENNYKTTPPVLDSDGSFALVSKLTVDKSRWQQGNVFSCSVMHEALHNHYTQKSLSLSPG
light: not shown
chain: not shown
notes: OA pertuzumab variant, HC G56Y (Kabat); also called v12490
- Ka, mut/Ka, WT (Recombinant human HER2 [3]): 2.7
- Kd (Recombinant human HER2 [1]): 7.8 nM
- Ka, mut/Ka, WT (Recombinant human HER2 [4]): 2.5
- Kd (Recombinant human HER2 [2]): 7.7 nM
